Target: biotinylated Calmodulin-binding peptide, biotin-…
Assay: model selection from a 4200:1 mixture (ED-B:Calmodulin templates) on peptide-coated magnetic beads; 35-cycle PCR, 1:10^5 dilution, real-time PCR on 1 µl; background carry-over of the excess non-binder

Sequence of biotinylated Calmodulin-binding peptide, biotin-… (peptide, as listed by the source): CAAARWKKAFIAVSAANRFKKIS

- DNA molecules detected after selection (DNA molecules): 1.4e+06
Substance: M.Hae III-ED-B fusion protein (covalently bonded to the linear DNA coding for it) (from UniProt P20589 1-330; P02751 1266-1356)
